Laboratory results from the supplement of paper PMC9112550, “Optimization of the antimicrobial peptide Bac7 by deep mutational scanning” (BMC Biology, 2022).

Test system: Escherichia coli TOP10
Assay: shrunken log2 fold change of peptide-encoding DNA abundance (4.5 h post-induction vs induction); higher = less antimicrobial activity (less host growth inhibition)
Settings: time post-induction: 4.5 h; library: site-saturation at positions 5, 18, 19, 20
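Also: peptides expressed intracellularly from a pBAD plasmid library in pooled LB shake-flask culture, induced with 0.3% L-arabinose, DNA abundance read by NGS, three biological replicates, DESeq2 with apeglm shrinkage.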

Sequence	shrunken log2 fold change
RRIRYRPPRLPRPRPRPPNDPRP	-0.151
RRIRARPPRLPRPRPRPNDEPRP	0.361
RRIRNRPPRLPRPRPRPLWWPRP	0.605
RRIRPRPPRLPRPRPRPQWYPRP	-0.257
RRIRIRPPRLPRPRPRPDAEPRP	0.874
RRIRTRPPRLPRPRPRPNYHPRP	-1.14
RRIRSRPPRLPRPRPRPDGIPRP	-0.0491
RRIRCRPPRLPRPRPRPSRYPRP	-0.285
RRIRHRPPRLPRPRPRPKNTPRP	-0.497
RRIRHRPPRLPRPRPRPAMIPRP	-0.0435
RRIRERPPRLPRPRPRPHMNPRP	-0.337
RRIRHRPPRLPRPRPRPFCSPRP	-0.171
RRIRERPPRLPRPRPRPQQWPRP	0.19
RRIRQRPPRLPRPRPRPYALPRP	-0.0202
RRIRQRPPRLPRPRPRPAWIPRP	-0.0396
RRIRNRPPRLPRPRPRPINVPRP	-0.0327
RRIRWRPPRLPRPRPRPETLPRP	0.0224
RRIRIRPPRLPRPRPRPMGHPRP	-0.174
RRIRCRPPRLPRPRPRPPKDPRP	0.261
RRIRNRPPRLPRPRPRPHRAPRP	0.264
RRIRWRPPRLPRPRPRPADEPRP	0.033
RRIRGRPPRLPRPRPRPICAPRP	1.2
RRIRFRPPRLPRPRPRPWIRPRP	-0.205
RRIRFRPPRLPRPRPRPNVFPRP	-0.108
RRIRGRPPRLPRPRPRPNVSPRP	-0.0528

Sequence	shrunken log2 fold change
RRIRIRPPRLPRPRPRPEYKPRP	-0.978
RRIRWRPPRLPRPRPRPMYEPRP	-0.103
RRIRCRPPRLPRPRPRPTFEPRP	-0.279
RRIRFRPPRLPRPRPRPNGYPRP	-0.3
RRIRFRPPRLPRPRPRPPVHPRP	0.119
RRIRGRPPRLPRPRPRPGPQPRP	0.719
RRIRHRPPRLPRPRPRPFGVPRP	-0.326
RRIRNRPPRLPRPRPRPPLLPRP	0.125
RRIRYRPPRLPRPRPRPRFYPRP	-0.45
RRIRYRPPRLPRPRPRPWWQPRP	-0.00151
RRIRQRPPRLPRPRPRPNNRPRP	-0.686
RRIRFRPPRLPRPRPRPLICPRP	-0.286
RRIRERPPRLPRPRPRPYCLPRP	-0.123
RRIRRRPPRLPRPRPRPVHSPRP	-0.0233
RRIRNRPPRLPRPRPRPQQMPRP	0.0512
RRIRIRPPRLPRPRPRPFSIPRP	-0.643
RRIRYRPPRLPRPRPRPCFTPRP	-0.941
RRIRMRPPRLPRPRPRPYQLPRP	0.0393
RRIRARPPRLPRPRPRPGFAPRP	0.57
RRIRCRPPRLPRPRPRPDYLPRP	0.0148
RRIRTRPPRLPRPRPRPAMLPRP	-0.0605
RRIRDRPPRLPRPRPRPNWWPRP	0.22
RRIRKRPPRLPRPRPRPEPCPRP	0.0397
RRIRARPPRLPRPRPRPWVCPRP	-0.136
RRIRARPPRLPRPRPRPCEIPRP	0.196

Sequence	shrunken log2 fold change
RRIRERPPRLPRPRPRPLYVPRP	-0.939
RRIRQRPPRLPRPRPRPVCHPRP	-0.13
RRIRKRPPRLPRPRPRPPQAPRP	0.0481
RRIRERPPRLPRPRPRPQPPPRP	0.104
RRIRSRPPRLPRPRPRPADYPRP	-0.455
RRIRERPPRLPRPRPRPRKVPRP	0.107
RRIRNRPPRLPRPRPRPFYVPRP	-0.181
RRIRLRPPRLPRPRPRPHANPRP	-0.293
RRIRWRPPRLPRPRPRPESNPRP	0.535
RRIRKRPPRLPRPRPRPNMIPRP	0.0348
RRIRDRPPRLPRPRPRPACMPRP	0.242
RRIRARPPRLPRPRPRPPGRPRP	0.742
RRIRSRPPRLPRPRPRPISDPRP	0.103
RRIRCRPPRLPRPRPRPPYRPRP	-0.0439
RRIRARPPRLPRPRPRPTFYPRP	-0.00745
RRIRRRPPRLPRPRPRPVYQPRP	-0.384
RRIRYRPPRLPRPRPRPYHMPRP	-0.00245
RRIRLRPPRLPRPRPRPKMKPRP	-0.476
RRIRLRPPRLPRPRPRPYWWPRP	0.0346
RRIRSRPPRLPRPRPRPGGGPRP	0.908
RRIRMRPPRLPRPRPRPWYTPRP	-0.012
RRIRARPPRLPRPRPRPTFRPRP	0.323
RRIRYRPPRLPRPRPRPTHFPRP	0.262
RRIRYRPPRLPRPRPRPLCPPRP	-0.397
RRIRYRPPRLPRPRPRPSSQPRP	-0.261
